This note sets out measurements from the RNAGym collection of RNA variant scans (doi:10.7554/elife.90254).

The labels stand for the following.
B1: OR4K15 (parent)
chain: GUUAACGGUCAUAGGCCAUGGAAACUAGGAGCACCAUUUCGCUGCCAGUGAAGAAAUGAACAAAGAAAAUCUGGGCCAGGCAGGCAUCAAAAGAAAUAGUCUUGCGCUCAACCAGAAAGUCUGUAAUCAUUUUAAGGGUA

Variants of B1 are the subject of this series. The experiment in a line: self-cleavage, relative activity (ratio to wild type); higher = more cleavage; in vitro, sequencing; the parent is a self-cleaving ribozyme.
Consider A11U U131C, for which the self-cleavage was found to be 1.15.
For A4G A24G, the self-cleavage is 1.62.
For U9C A114U, the self-cleavage is 0.1.
As to A55G A86U, the self-cleavage was found to be 1.26.
As for A5G A51U, the figure is 1.35.
As to A47G A114U, the self-cleavage worked out at 0.11.
Then U97A, with 1.75; and G20U A68G, with 1.59; and A23G G137A, with 1.04.
With U57C G74A, the self-cleavage amounted to 0.28.
As for A94G U130C, the self-cleavage was determined as 1.16.
Regarding U9C A33G, the self-cleavage was 1.15.
As for A60G U139C, the figure is 0.47; as for U2C A82U, 0.17.
As for U26A A89G, the self-cleavage worked out at 1.53.
U12C U124C: the self-cleavage worked out at 0.67.
For the variant U9C A94G, the self-cleavage worked out at 1.35.
With G7C A23G, the self-cleavage stood at 0.73.
For the variant A11G A24U, the self-cleavage came out at 0.53.
As for A82U U139A, the figure is 0.18; as for A24G G75A, 0.15; as for A23G C105G, 0.07.
As for U49G G75A, the figure is 0.09; as for A33G G93A, 1.14.
With A18G A68G, the self-cleavage was determined as 1.16.
As for A33G U108C, the self-cleavage is 0.02.
As to A89G A118G, the self-cleavage stood at 1.18.
Take C45A A91G: the self-cleavage came out at 0.61.
On to A92G A125C, for which the self-cleavage is 1.44.
Take C34U A62G: the self-cleavage turned out to be 1.25.
As to A69U A91G, the self-cleavage stood at 1.79.
Consider A64G U108A, for which the self-cleavage is 0.01.
Turning to A11C A91G, the self-cleavage was 1.67.
In the case of G53U A82U, the self-cleavage was determined as 0.27.
For A47G A67U, the self-cleavage came to 1.48.
U120C A129U: the self-cleavage was 0.78.
As for A54G U57C, the figure is 0.65.
For the variant G14U U87C, the self-cleavage was determined as 1.48.
U57C A82C: the self-cleavage was found to be 0.23.
Regarding C61U A82G, the self-cleavage turned out to be 0.28.
A114G A118G: the self-cleavage was 0.36.
For U12G G138A, the self-cleavage is 1.44.
As for U43G A67U, the figure is 2.63; as for U37A A59G, 1.78.
As for A18C U130C, the figure is 0.96; as for A94U A111U, 0.12; as for A116U U124A, 0.08.
As for A47U G50A, the self-cleavage was found to be 0.26.
As to A117G C128U, the self-cleavage was found to be 2.12.
A117U U122C: the self-cleavage came to 1.24.
Take A23U A67U: the self-cleavage came to 1.91.
Regarding A47G U57C, the self-cleavage stood at 0.69.
In the case of U26C U37C, the self-cleavage was determined as 0.95.
In the case of U26C A52U, the self-cleavage worked out at 0.88.
For the variant G14A A134U, the self-cleavage turned out to be 0.5.
In the case of U12C A30G, the self-cleavage was 1.28.
Then A52G A90U, with 1.81; and G53A G119U, with 2.11; and U9A U139C, with 1.69.
As for A64C C76U, the self-cleavage was determined as 0.26.
In the case of A33U A95U, the self-cleavage was 2.
Then A116G A134U, with 0.2; and A111C U131C, with 0; and G20A A126G, with 1.02.
As to U19C A118G, the self-cleavage came to 1.27.
As to A86U A110G, the self-cleavage was found to be 0.09.
For A62U A118G, the self-cleavage came out at 1.9.
As to C6U U130C, the self-cleavage came out at 0.74.
Turning to U26G U127A, the self-cleavage was found to be 1.82.
For the variant A62G A90U, the self-cleavage is 0.76.
Turning to A60U A94U, the self-cleavage is 1.82.
As for A24C A52G, the self-cleavage worked out at 1.55.
Then A86G A92G, with 1.07.
A67G U122A: the self-cleavage was 0.99.
With U9C A126G, the self-cleavage was 1.19.
As for A62G G115U, the self-cleavage was 0.07.
For A52C U87C, the self-cleavage was 1.09.
For the variant A4G C88U, the self-cleavage was found to be 0.96.
With U57C C101A, the self-cleavage is 0.1.
As to C6U C45A, the self-cleavage worked out at 1.31.
Take A18U U43G: the self-cleavage was 1.5.
Consider A33C A60G, for which the self-cleavage was 1.57.
As for A33U U130C, the self-cleavage came out at 2.
Then U100A A134G, with 0.37; and A22U A64G, with 1.62.
In the case of C16U A55G, the self-cleavage stood at 1.63.
Then A60U G104A, with 0.03; and A78U A98U, with 0.71.
For A91G A118C, the self-cleavage was 0.47.
For G14A A23G, the self-cleavage came out at 0.8.
Consider U57A A114G, for which the self-cleavage amounted to 0.38.
As to A4G A110U, the self-cleavage turned out to be 1.15.
As for A30G C40U, the figure is 0.89; as for A59U G137U, 2.15.
Consider A4G U131C, for which the self-cleavage amounted to 1.45.
In the case of C76U U124A, the self-cleavage turned out to be 0.02.
Take U12A U108C: the self-cleavage is 0.04.
As to A23C A95G, the self-cleavage was determined as 1.67.
As for A67U U87C, the self-cleavage was 1.29.
As to A52U A69U, the self-cleavage was 1.98.
In the case of A117C U120A, the self-cleavage was found to be 1.28.
Then A27C A135U, with 2.25; and U87A G106C, with 0.01; and A24U U120C, with 0.8.
As for U103A G137A, the self-cleavage is 0.85.
Regarding G48A A69G, the self-cleavage was 1.49.
As for A22G U124A, the figure is 1.29; as for A13U A18C, 1.62.
As for C77U U133C, the self-cleavage was 2.55.
U3C U97C: the self-cleavage is 1.12.
Take C42U U130C: the self-cleavage turned out to be 1.09.
As for U100C U127C, the self-cleavage was 1.61.
As for A68G A110G, the figure is 0.25; as for U43C G83A, 1.59.
Turning to A11U A126G, the self-cleavage is 0.81.
Then U9C A55G, with 1.28.
With C16U A30U, the self-cleavage was 1.
As to A56C A125C, the self-cleavage amounted to 0.7.
With G65A A78G, the self-cleavage stood at 0.2.
Consider U9A U102C, for which the self-cleavage amounted to 1.97.
Then U12A A91G, with 1.57; and C71U U131C, with 0.25; and U57C C105G, with 0.01.
Then U9A G58A, with 0.78; and U39A U57A, with 1.37; and A11C U131C, with 0.89.
Then A30G A63G, with 1.57; and A30G A33U, with 1.18.
With C128U, the self-cleavage was found to be 0.85.
Consider G79U A94G, for which the self-cleavage was 0.43.
With A33U U39C, the self-cleavage was determined as 1.56.
Regarding A66U A89U, the self-cleavage was 0.62.
Turning to A24G C112U, the self-cleavage turned out to be 0.02.
Then A78U A114G, with 0.11.
In the case of A94G A117G, the self-cleavage stood at 1.92.
As for C46U A67G, the figure is 1.56; as for C17U A118G, 1.1.
Take U87C A111U: the self-cleavage came to 0.07.
For A4G A125G, the self-cleavage was found to be 0.55.
On to A36U A60G, for which the self-cleavage was determined as 1.11.
Consider A30U U97C, for which the self-cleavage was determined as 0.83.
Take A13G A64G: the self-cleavage worked out at 0.88.
For A56U U87C, the self-cleavage was found to be 1.05.
Regarding A59G A90G, the self-cleavage is 0.78.
As to U9C C61U, the self-cleavage came to 2.27.
As to A18U A95G, the self-cleavage was 1.96.
U9A A78G: the self-cleavage stood at 0.32.
For the variant A4G A68G, the self-cleavage was found to be 0.87.
With U2C C128A, the self-cleavage is 0.85.
As for A64U C77U, the self-cleavage stood at 1.56.
Turning to U57A A110U, the self-cleavage worked out at 1.
For the variant A54G U70C, the self-cleavage was 0.61.
On to G44A U130C, for which the self-cleavage is 0.64.
For A5G A118G, the self-cleavage came out at 1.
Consider A59U A95G, for which the self-cleavage turned out to be 1.85.
As for A68G C128U, the self-cleavage is 1.44.
Turning to A54U A89C, the self-cleavage was determined as 1.5.
On to G31C U122A, for which the self-cleavage turned out to be 1.89.
As to U43A U122C, the self-cleavage was determined as 1.85.
Then U12G A13G, with 1.09.
For U9C U39C, the self-cleavage was 1.45.
In the case of C42A A110G, the self-cleavage stood at 0.16.
Regarding U108C C128G, the self-cleavage came out at 0.01.
Regarding G7U A68G, the self-cleavage was 2.39.
Turning to G28U A135C, the self-cleavage was 2.26.
As for A96U A129G, the self-cleavage was 1.36.
As for A78G U102A, the figure is 0.11.
